Assay results: US20210380703A1
Numbering of substitutions follows the chain as printed.

B1: 375_G12 (antibody, V domains shown)
VH: EVQLLESGGGLVQPGGSLRLSCAASGFTFDSYGMHWVRQAPGKGLEWVSSINYNGGYTSYADSVKGRFTISRDNSKNTLYLQMNSLRAEDTAVYYCARSATWHDTHLDYWGQGTLVTVSS
VL: DIQMTQSPSSLSASVGDRVTITCRASQSIVSYVNWYQQKPGKAPKLLIYAATSRHSGVPSRFSGSGSGTDFTLTISSLQPEDFATYYCQQSYDTPLTFGGGTKVEIK
B2: 370_A08 (antibody, V domains shown)
VH: B1 VH with G33S, H35N, G55S, S59G
VL: B1 VL with S31T, V33L, L47V, H55A, T94L
B3: 370_E12 (antibody, V domains shown)
VH: B1 VH with S49A, S50G, S99A
VL: B1 VL with V30L, H55A, D93E, T94N
B4: 371_C02 (antibody, V domains shown)
VH: B1 VH with S49A, S50G, G55S, S59G, S99A
VL: B1 VL with V30L, S31T, T52S, R54L, H55Q
B5: 371_B11 (antibody, V domains shown)
VH: B1 VH with D30S, G33S, S49A, G55S, S99A
VL: B1 VL with V30L, S31T, V33L, H55A, D93E, T94L
B6: 369_C06 (antibody, V domains shown)
VH: B1 VH with D30S, G33S, T58K, S99A
VL: B1 VL with V30L, H55A, T94S
B7: 368_B04 (antibody, V domains shown)
VH: B1 VH with S99A
VL: B1 VL with V33L, L47V, H55A, D93E, T94N
B8: 370_A10 (antibody, V domains shown)
VH: B1 VH with D30S, S31D, G33S, H35N, G55S, T58K, S59G
VL: B1 VL with V30L, R54L, H55A
B9: 369_C09 (antibody, V domains shown)
VH: B1 VH with D30S, S59G, S99A
VL: B1 VL with V33L, L47V, T94L
B10: 374_E06 (antibody, V domains shown)
VH: B1 VH with G33S, H35N, G55S, T58K, S59G
VL: B1 VL with V30L, V33L, H55A, T94L
B11: 369_E03 (antibody, V domains shown)
VH: B1 VH with D30S, S49A, S50G, S99A
VL: B1 VL with V30L, R54L, H55A, D93E, T94N
B12: 370_B06 (antibody, V domains shown)
VH: B1 VH with D30S, S49A, S50G, S99A
VL: B1 VL with L47V, H55A, D93E
B13: 368_B12 (antibody, V domains shown)
VH: B1 VH with S50G, G55S, S99A
VL: B1 VL with H55A, T94L
B14: 368_G07 (antibody, V domains shown)
VH: B1 VH with D30S, G33S
VL: B1 VL with L47V, H55A
B15: 368_C12 (antibody, V domains shown)
VH: B1 VH with S49A, S99A
VL: B1 VL with V30L, S31T, V33L, H55A, Y92D, D93S, T94N
B16: 367_H04 (antibody, V domains shown)
VH: B1 VH with D30S, G33S, H35N
VL: B1 VL with V30L, S31T, Y92D, D93N, T94N
B17: 368_G11 (antibody, V domains shown)
VH: B1 VH with S50G, G55S, T58K, S99A, H106A
VL: B1 VL with V30L, S31T, V33L, H55A, Y92D, D93N
B18: 368_H03 (antibody, V domains shown)
VH: B1 VH with S31D, G33S, S49A, S59G, S99A
VL: B1 VL with V30L, L47V, A51V, D93S, T94N
B19: 375_F01 (antibody, V domains shown)
VH: B1 VH with D30S, G33S, H35N, G55S, S59G
VL: B1 VL with V33L, L47V, H55A, T94N
B20: 368_G08 (antibody, V domains shown)
VH: B1 VH with S31D, H35N, G55S, T58K
VL: B1 VL with D93N, T94N
B21: 369_A12 (antibody, V domains shown)
VH: B1 VH with D30S, G33S, S49A, G55S, S59G, S99A
VL: B1 VL with V30L, S31T, V33L, T94L
B22: 371_B02 (antibody, V domains shown)
VH: B1 VH with H35N, S50N, S99A
VL: B1 VL with V30L, S31T, L47V, R54L, H55A, D93N, T94N
B23: 369_B08 (antibody, V domains shown)
VH: B1 VH with S99A
VL: B1 VL with V30L, H55A, D93E, T94S
B24: 369_A04 (antibody, V domains shown)
VH: B1 VH with S49A, T58K, S99A
VL: B1 VL with L47V, R54L, H55A, T94L
B25: 367_H08 (antibody, V domains shown)
VH: B1 VH with H35N, S99A
VL: B1 VL with V30L, S31T, D93N, T94L
B26: 371_A05 (antibody, V domains shown)
VH: B1 VH with D30S, S50N, T58K, S99A
VL: B1 VL with V30L, S31T, V33L, H55A, Y92D, D93N, T94L
B27: 369_B07 (antibody, V domains shown)
VH: B1 VH with S49A, S50N, T58K, S99A
VL: B1 VL with L47V, R54L, H55A, T94L
B28: 365_G07 (antibody, V domains shown)
VH: B1 VH with S99A, T101N, H106A
VL: B1 VL with V33L, H55A, T94N
B29: 370_H05 (antibody, V domains shown)
VH: B1 VH with D30S, S50N, S99A
VL: B1 VL with V30L, V33L, T52S, R54L, H55Q, Y92D, D93S, T94L
B30: 368_H10 (antibody, V domains shown)
VH: B1 VH with D30S, G33S, H35N, G55S, T58K, S59G
VL: B1 VL with L47V, A51V, R54L, H55A, D93E
B31: 368_C07 (antibody, V domains shown)
VH: B1 VH with D30S, S49A, S50G, G55S, S99A
VL: B1 VL with L47V, H55A, D93E, T94N
B32: 368_D06 (antibody, V domains shown)
VH: B1 VH with D30S, H35N, S50N, S59G, S99A
VL: B1 VL with V30L, L47V, D93E, T94N
B33: 368_E08 (antibody, V domains shown)
VH: B1 VH with S49A, S50N, G55S, S59G, S99A
VL: B1 VL with V30L, L47V, R54L, D93E
B34: 369_C11 (antibody, V domains shown)
VH: B1 VH with D30S, S31D, S49A, S50G, S59G, S99A
VL: B1 VL with V30L, V33L, L47V, H55A

molecular target: human Fc (human); experiment: ELISA, negative control

Row | optical density [OD] | Binder
1 | 0.199 | B1
2 | 0.319 | B2
3 | 0.656 | B3
4 | 0.372 | B4
5 | 0.549 | B5
6 | 0.414 | B6
7 | 0.304 | B7
8 | 0.434 | B8
9 | 0.32 | B9
10 | 0.191 | B10
11 | 0.63 | B11
12 | 0.441 | B12
13 | 0.567 | B13
14 | 0.29 | B14
15 | 0.346 | B15
16 | 0.289 | B16
17 | 0.306 | B17

Row | optical density [OD] | Binder
18 | 0.343 | B18
19 | 0.166 | B19
20 | 0.329 | B20
21 | 0.461 | B21
22 | 0.449 | B22
23 | 0.309 | B23
24 | 0.353 | B24
25 | 0.312 | B25
26 | 0.369 | B26
27 | 0.319 | B27
28 | 0.331 | B28
29 | 0.364 | B29
30 | 0.281 | B30
31 | 0.282 | B31
32 | 0.265 | B32
33 | 0.255 | B33
34 | 0.378 | B34
